From the supplement of paper PMC5998384

Legend:
[1] = tested on: HeLa Kyoto; experiment: melting temperature (median over replicates), in situ; higher = more thermally stable
[2] = tested on: HeLa Kyoto; experiment: solubility change mitosis vs G1/S (difference of NP-40 vs SDS log2 ratios) (log2 ratio difference); higher = more soluble in mitosis
[3] = tested on: HeLa Kyoto; experiment: solubility in G1/S (NP-40 vs SDS abundance) (log2 ratio); higher = more soluble; conditions: cell cycle stage: G1/S
[4] = tested on: HeLa Kyoto; experiment: thermal stability score vs G1/S (z-score of summed log2 fold changes over temperatures); higher = more thermally stable than in G1/S
[5] = cell cycle stage: early G1 (4.5 h after nocodazole release)
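For melting temperature (median over replicates), in situ in this document: HeLa Kyoto cells synchronized by double thymidine or nocodazole block, proteins quantified by TMT10plex mass spectrometry, three independent biological replicates.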
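For solubility change mitosis vs G1/S (difference of NP-40 vs SDS log2 ratios) in this document: synchronized HeLa Kyoto cells (double thymidine block for G1/S, nocodazole release for mitosis), protein amounts in NP-40 versus SDS lysates quantified by mass spectrometry, three biological replicates.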
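For solubility in G1/S (NP-40 vs SDS abundance) in this document: HeLa Kyoto cells arrested at G1/S by double thymidine block, proteins quantified by TMT10plex mass spectrometry in mild NP-40 versus SDS extracts, three biological replicates.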
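For thermal stability score vs G1/S (z-score of summed log2 fold changes over temperatures) in this document: synchronized HeLa Kyoto cells, proteins quantified by TMT10plex mass spectrometry, three biological replicates, mitosis taken 0.5 h after nocodazole release, G1/S directly after double thymidine block.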

Substance	melting temperature ([1]; cell cycle stage: G1/S)	melting temperature ([1]; cell cycle stage: mitosis)	solubility change mitosis (log2) [2]	solubility in G1/S (log2) [3]	thermal stability score [4, 5]	thermal stability score ([4]; cell cycle stage: mitosis)
MARLWGALSLWPLWAAVPWGGAAAVGVRACSSTAAPDGVEGPALRRSYWRHLRRLVLGPPEPPFSHVCQVGDPVLRGVAAPVERAQLGGPELQRLTQRLVQVMRRRRCVGLSAPQLGVPRQVLALELPEALCRECPPRQRALRQMEPFPLRVFVNPSLRVLDSRLVTFPEGCESVAGFLACVPRFQAVQISGLDPNGEQVVWQASGWAARIIQHEMDHLQGCLFIDKMDSRTFTNVYWMKVND [PDF]	54.8 °C	54.9 °C	-0.136	0.308	1.03	0.625
MSLAFKIFFPQTLRALSRKELCLFRKHHWRDVRQFSQWSETDLLHGHPLFLRRKPVLSFQGSHLRSRATYLVFLPGLHVGLCSGPCEMAEQRFCVDYAKRGTAGCKKCKEKIVKGVCRIGKVVPNPFSESGGDMKEWYHIKCMFEKLERARATTKKIEDLTELEGWEELEDNEKEQITQHIADLSSKAAGTPKKKAVVQAKLTTTGQVTSPVKGASFVTSTNPRKFSGFSAKPNNSGEAPSSPTPKRSLSSSKCDPRHKDCLLREFRKLCAMVADNPSYNTKTQIIQDFLRKGSAGDGFHGDVYLTVKLLLPGVIKTVYNLNDKQIVKLFSRIFNCNPDDMARDLEQGDVSETIRVFFEQSKSFPPAAKSLLTIQEVDEFLLRLSKLTKEDEQQQALQDIASRCTANDLKCIIRLIKHDLKMNSGAKHVLDALDPNAYEAFKASRNLQDVVERVLHNAQEVEKEPGQRRALSVQASLMTPVQPMLAEACKSVEYAMKKCPNGMFSEIKYDGERVQVHKNGDHFSYFSRSLKPVLPHKVAHFKDYIPQAFPGGHSMILDSEVLLIDNKTGKPLPFGTLGVHKKAAFQDANVCLFVFDCIYFNDVSLMDRPLCERRKFLHDNMVEIPNRIMFSEMKRVTKALDLADMITRVIQEGLEGLVLKDVKGTYEPGKRHWLKVKKDYLNEGAMADTADLVVLGAFYGQGSKGGMMSIFLMGCYDPGSQKWCTVTKCAGGHDDATLARLQNELDMVKISKDPSKIPSWLKVNKIYYPDFIVPDPKKAAVWEITGAEFSKSEAHTADGISIRFPRCTRIRDDKDWKSATNLPQLKELYQLSKEKADFTVVAGDEGSSTTGGSSEENKGPSGSAVSRKAPSKPSASTKKAEGKLSNSNSKDGNMQTAKPSAMKVGEKLATKSSPVKVGEKRKAADETLCQTKVLLDIFTGVRLYLPPSTPDFSRLRRYFVAFDGDLVQEFDMTSATHVLGSRDKNPAAQQVSPEWIWACIRKRRLVAPC [LIG3]	46.3 °C	48.8 °C	0.0705	-0.13	0.91	2.49
MFEIKKICCIGAGYVGGPTCSVIAHMCPEIRVTVVDVNESRINAWNSPTLPIYEPGLKEVVESCRGKNLFFSTNIDDAIKEADLVFISVNTPTKTYGMGKGRAADLKYIEACARRIVQNSNGYKIVTEKSTVPVRAAESIRRIFDANTKPNLNLQVLSNPEFLAEGTAIKDLKNPDRVLIGGDETPEGQRAVQALCAVYEHWVPREKILTTNTWSSELSKLAANAFLAQRISSINSISALCEATGADVEEVATAIGMDQRIGNKFLKASVGFGGSCFQKDVLNLVYLCEALNLPEVARYWQQVIDMNDYQRRRFASRIIDSLFNTVTDKKIAILGFAFKKDTGDTRESSSIYISKYLMDEGAHLHIYDPKVPREQIVVDLSHPGVSEDDQVSRLVTISKDPYEACDGAHAVVICTEWDMFKELDYERIHKKMLKPAFIFDGRRVLDGLHNELQTIGFQIETIGKKVSSKRIPYAPSGEIPKFSLQDPPNKKPKV [UGDH]	54 °C	54.2 °C	-0.0998	0.126	0.636	0.376
MWRLVPPKLGRLSRSLKLAALGSLLVLMVLHSPSLLASWQRNELTDRRFLQLNKCPACFGTSWCRRFLNGQVVFEAWGRLRLLDFLNVKNVYFAQYGEPREGGRRRVVLKRLGSQRELAQLDQSICKRATGRPRCDLLQAMPRTEFARLNGDVRLLTPEAVEGWSDLVHCPSQRLLDRLVRRYAETKDSGSFLLRNLKDSERMQLLLTLAFNPEPLVLQSFPSDEGWPFAKYLGACGRMVAVNYVGEELWSYFNAPWEKRVDLAWQLMEIAEQLTNNDFEFALYLLDVSFDNFAVGPRDGKVIIVDAENVLVADKRLIRQNKPENWDVWYESKFDDCDKEACLSFSKEILCARATVDHNYYAVCQNLLSRHATWRGTSGGLLHDPPSEIAKDGRLEALLDECANPKKRYGRFQAAKELREYLAQLSNNVR [C3ORF58]	53 °C	52.3 °C	-0.109	0.0343	-0.149	-0.787
MSEWMKKGPLEWQDYIYKEVRVTASEKNEYKGWVLTTDPVSANIVLVNFLEDGSMSVTGIMGHAVQTVETMNEGDHRVREKLMHLFTSGDCKAYSPEDLEERKNSLKKWLEKNHIPITEQGDAPRTLCVAGVLTIDPPYGPENCSSSNEIILSRVQDLIEGHLTASQ [GEMIN6]	53.6 °C	52.3 °C	0.0835	0.271	-0.4	-2.06
MPRVKAAQAGRQSSAKRHLAEQFAVGEIITDMAKKEWKVGLPIGQGGFGCIYLADMNSSESVGSDAPCVVKVEPSDNGPLFTELKFYQRAAKPEQIQKWIRTRKLKYLGVPKYWGSGLHDKNGKSYRFMIMDRFGSDLQKIYEANAKRFSRKTVLQLSLRILDILEYIHEHEYVHGDIKASNLLLNYKNPDQVYLVDYGLAYRYCPEGVHKEYKEDPKRCHDGTIEFTSIDAHNGVAPSRRGDLEILGYCMIQWLTGHLPWEDNLKDPKYVRDSKIRYRENIASLMDKCFPEKNKPGEIAKYMETVKLLDYTEKPLYENLRDILLQGLKAIGSKDDGKLDLSVVENGGLKAKTITKKRKKEIEESKEPGVEDTEWSNTQTEEAIQTRSRTRKRVQK [VRK1]	48.2 °C	49.8 °C	-0.0401	-0.215	3.16	3.91
MDCGSVGGQRTQRLPGRQRLLFLPVGLSGRPGGSETSARRCLSALSDGLGALRPRAPAARGGVSRASPLLLLLLVPSPRLAAAAPRRQLGDWERSRLGYAAPPAGRSSAWRCSPGVAAAAGALPQYHGPAPALVSCRRELSLSAGSLQLERKRRDFTSSGSRKLYFDTHALVCLLEDNGFATQQAEIIVSALVKILEANMDIVYKDMVTKMQQEITFQQVMSQIANVKKDMIILEKSEFSALRAENEKIKLELHQLKQQVMDEVIKVRTDTKLDFNLEKSRVKELYSLNEKKLLELRTEIVALHAQQDRALTQTDRKIETEVAGLKTMLESHKLDNIKYLAGSIFTCLTVALGFYRLWI [MCUR1]		52 °C	-0.0249	0.186	-0.0232	-0.133
MACAEFSFHVPSLEELAGVMQKGLKDNFADVQVSVVDCPDLTKEPFTFPVKGICGKTRIAEVGGVPYLLPLVNQKKVYDLNKIAKEIKLPGAFILGAGAGPFQTLGFNSEFMPVIQTESEHKPPVNGSYFAHVNPADGGCLLEKYSEKCHDFQCALLANLFASEGQPGKVIEVKAKRRTGPLNFVTCMRETLEKHYGNKPIGMGGTFIIQKGKVKSHIMPAEFSSCPLNSDEEVNKWLHFYEMKAPLVCLPVFVSRDPGFDLRLEHTHFFSRHGEGGHYHYDTTPDIVEYLGYFLPAEFLYRIDQPKETHSIGRD [C11ORF54]	55.7 °C	56.3 °C	-0.126	0.72	-2.98	-4.1
MRLGPRTAALGLLLLCAAAAGAGKAEELHYPLGERRSDYDREALLGVQEDVDEYVKLGHEEQQKRLQAIIKKIDLDSDGFLTESELSSWIQMSFKHYAMQEAKQQFVEYDKNSDDTVTWDEYNIQMYDRVIDFDENTALDDAEEESFRKLHLKDKKRFEKANQDSGPGLSLEEFIAFEHPEEVDYMTEFVIQEALEEHDKNGDGFVSLEEFLGDYRWDPTANEDPEWILVEKDRFVNDYDKDNDGRLDPQELLPWVVPNNQGIAQEEALHLIDEMDLNGDKKLSEEEILENPDLFLTSEATDYGRQLHDDYFYHDEL [RCN2]	54.1 °C	55.7 °C	0.0798	0.0519	4.55	0.298
DNAJA2	51.7 °C	51.7 °C	-0.191	0.258	-0.554	-2.34
MTAVHAGNINFKWDPKSLEIRTLAVERLLEPLVTQVTTLVNTNSKGPSNKKRGRSKKAHVLAASVEQATENFLEKGDKIAKESQFLKEELVAAVEDVRKQGDLMKAAAGEFADDPCSSVKRGNMVRAARALLSAVTRLLILADMADVYKLLVQLKVVEDGILKLRNAGNEQDLGIQYKALKPEVDKLNIMAAKRQQELKDVGHRDQMAAARGILQKNVPILYTASQACLQHPDVAAYKANRDLIYKQLQQAVTGISNAAQATASDDASQHQGGGGGELAYALNNFDKQIIVDPLSFSEERFRPSLEERLESIISGAALMADSSCTRDDRRERIVAECNAVRQALQDLLSEYMGNAGRKERSDALNSAIDKMTKKTRDLRRQLRKAVMDHVSDSFLETNVPLLVLIEAAKNGNEKEVKEYAQVFREHANKLIEVANLACSISNNEEGVKLVRMSASQLEALCPQVINAALALAAKPQSKLAQENMDLFKEQWEKQVRVLTDAVDDITSIDDFLAVSENHILEDVNKCVIALQEKDVDGLDRTAGAIRGRAARVIHVVTSEMDNYEPGVYTEKVLEATKLLSNTVMPRFTEQVEAAVEALSSDPAQPMDENEFIDASRLVYDGIRDIRKAVLMIRTPEELDDSDFETEDFDVRSRTSVQTEDDQLIAGQSARAIMAQLPQEQKAKIAEQVASFQEEKSKLDAEVSKWDDSGNDIIVLAKQMCMIMMEMTDFTRGKGPLKNTSDVISAAKKIAEAGSRMDKLGRTIADHCPDSACKQDLLAYLQRIALYCHQLNICSKVKAEVQNLGGELVVSGVDSAMSLIQAAKNLMNAVVQTVKASYVASTKYQKSQGMASLNLPAVSWKMKAPEKKPLVKREKQDETQTKIKRASQKKHVNPVQALSEFKAMDSI [CTNNA1]	52.6 °C	52.2 °C	-0.0404	0.402	-0.182	-0.645
MAAIRMGKLTTMPAGLIYASVSVHAAKQEESKKQLVKPEQLPIYTAPPLQSKYVEEQPGHLQMGFASIRTATGCYIGWCKGVYVFVKNGIMDTVQFGKDAYVYLKNPPRDFLPKMGVITVSGLAGLVSARKGSKFKKITYPLGLATLGATVCYPVQSVIIAKVTAKKVYATSQQIFGAVKSLWTKSSKEESLPKPKEKTKLGSSSEIEVPAKTTHVLKHSVPLPTELSSEAKTKSESTSGATQFMPDPKLMDHGQSHPEDIDMYSTRS [APOOL]	53.9 °C	57.3 °C	-0.104	0.166	-1.29	-2.35
MAAGTSSYWEDLRKQARQLENELDLKLVSFSKLCTSYSHSSTRDGRRDRYSSDTTPLLNGSSQDRMFETMAIEIEQLLARLTGVNDKMAEYTNSAGVPSLNAALMHTLQRHRDILQDYTHEFHKTKANFMAIRERENLMGSVRKDIESYKSGSGVNNRRTELFLKEHDHLRNSDRLIEETISIAMATKENMTSQRGMLKSIHSKMNTLANRFPAVNSLIQRINLRKRRDSLILGGVIGICTILLLLYAFH [GOSR1]	54.7 °C	52 °C	0.02	0.28	-0.21	-0.667
MQLTVKALQGRECSLQVPEDELVSTLKQLVSEKLNVPVRQQRLLFKGKALADGKRLSDYSIGPNSKLNLVVKPLEKVLLEEGEAQRLADSPPPQVWQLISKVLARHFSAADASRVLEQLQRDYERSLSRLTLDDIERLASRFLHPEVTETMEKGFSK [UBL4A]	51.4 °C	51.7 °C	0.277	0.557	0.0718	0.136
MPVDLSKWSGPLSLQEVDEQPQHPLHVTYAGAAVDELGKVLTPTQVKNRPTSISWDGLDSGKLYTLVLTDPDAPSRKDPKYREWHHFLVVNMKGNDISSGTVLSDYVGSGPPKGTGLHRYVWLVYEQDRPLKCDEPILSNRSGDHRGKFKVASFRKKYELRAPVAGTCYQAEWDDYVPKLYEQLSGK [PEBP1]	56.9 °C	57.3 °C	0.21	0.607	-0.593	-3.2
